Assay results as given in the supplement of paper PMC9112550, “Optimization of the antimicrobial peptide Bac7 by deep mutational scanning” (BMC Biology, 2022).

These sequences were tested on Escherichia coli TOP10 (assay: shrunken log2 fold change of peptide-encoding DNA abundance (4.5 h post-induction vs induction); higher = less antimicrobial activity (less host growth inhibition)). Settings: time post-induction: 4.5 h; library: site-saturation at positions 5, 18, 19, 20.
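Also: peptides expressed intracellularly from a pBAD plasmid library in pooled LB shake-flask culture, induced with 0.3% L-arabinose, DNA abundance read by NGS, three biological replicates, DESeq2 with apeglm shrinkage.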

Sequence | shrunken log2 fold change
RRIRSRPPRLPRPRPRPNNDPRP | -0.503
RRIRKRPPRLPRPRPRPNCTPRP | 0.335
RRIRMRPPRLPRPRPRPGWYPRP | -0.277
RRIRWRPPRLPRPRPRPRHSPRP | 0.286
RRIRKRPPRLPRPRPRPAGQPRP | 0.0284
RRIRCRPPRLPRPRPRPMMPPRP | -0.11
RRIRFRPPRLPRPRPRPSGGPRP | -0.103
RRIRDRPPRLPRPRPRPLLEPRP | 0.31
RRIRGRPPRLPRPRPRPYYYPRP | -0.824
RRIRSRPPRLPRPRPRPTNSPRP | -0.24
RRIRRRPPRLPRPRPRPNIYPRP | -0.252
RRIRARPPRLPRPRPRPHVQPRP | 0.00547
RRIRNRPPRLPRPRPRPEITPRP | -0.0284
RRIRERPPRLPRPRPRPSEFPRP | -0.23
RRIRSRPPRLPRPRPRPGTSPRP | -0.167
RRIRVRPPRLPRPRPRPSNIPRP | -0.526
RRIRERPPRLPRPRPRPNLKPRP | -0.56
RRIRYRPPRLPRPRPRPVWRPRP | 0.119
RRIRWRPPRLPRPRPRPPKIPRP | 0.22
RRIRVRPPRLPRPRPRPDMPPRP | -0.264
RRIRERPPRLPRPRPRPWRYPRP | -0.176
RRIRSRPPRLPRPRPRPWGSPRP | -0.0403
RRIRMRPPRLPRPRPRPECAPRP | 3.56
RRIRCRPPRLPRPRPRPFIAPRP | -0.613
RRIRMRPPRLPRPRPRPGYRPRP | 0.158

Sequence | shrunken log2 fold change
RRIRNRPPRLPRPRPRPGGNPRP | -0.0331
RRIRCRPPRLPRPRPRPPKNPRP | 0.5
RRIRLRPPRLPRPRPRPDAIPRP | 0.0952
RRIRPRPPRLPRPRPRPIHCPRP | -0.125
RRIRFRPPRLPRPRPRPILWPRP | -0.0429
RRIRQRPPRLPRPRPRPQMHPRP | -0.168
RRIRGRPPRLPRPRPRPEGFPRP | 1.56
RRIRERPPRLPRPRPRPALFPRP | 0.0738
RRIRGRPPRLPRPRPRPLMKPRP | 0.635
RRIRLRPPRLPRPRPRPVHTPRP | -0.0875
RRIRWRPPRLPRPRPRPQWNPRP | -0.156
RRIRCRPPRLPRPRPRPFYAPRP | -0.813
RRIRCRPPRLPRPRPRPPRQPRP | 0.589
RRIRCRPPRLPRPRPRPQDMPRP | 0.0633
RRIRIRPPRLPRPRPRPAKLPRP | -0.302
RRIRERPPRLPRPRPRPEQPPRP | -0.064
RRIRNRPPRLPRPRPRPGIDPRP | -0.042
RRIRGRPPRLPRPRPRPERMPRP | 0.251
RRIRNRPPRLPRPRPRPNYWPRP | -0.694
RRIRVRPPRLPRPRPRPQWIPRP | -0.895
RRIRVRPPRLPRPRPRPMEQPRP | -0.033
RRIRQRPPRLPRPRPRPHCDPRP | 0.0241
RRIRKRPPRLPRPRPRPAPVPRP | 0.668
RRIRQRPPRLPRPRPRPNLSPRP | -0.258
RRIRLRPPRLPRPRPRPLPHPRP | -0.309

Sequence | shrunken log2 fold change
RRIRNRPPRLPRPRPRPQKLPRP | -0.188
RRIRGRPPRLPRPRPRPVKQPRP | 0.216
RRIRGRPPRLPRPRPRPATCPRP | 0.512
RRIRGRPPRLPRPRPRPHWKPRP | 0.184
RRIRIRPPRLPRPRPRPLYAPRP | -0.651
RRIRDRPPRLPRPRPRPQGIPRP | -0.0548
RRIRIRPPRLPRPRPRPLDHPRP | -0.333
RRIRERPPRLPRPRPRPSPLPRP | -0.0982
RRIRRRPPRLPRPRPRPDFEPRP | 0.552
RRIRERPPRLPRPRPRPRPPPRP | 0.69
RRIRFRPPRLPRPRPRPSYHPRP | -0.485
RRIRIRPPRLPRPRPRPDFHPRP | -0.649
RRIRNRPPRLPRPRPRPQHKPRP | -0.155
RRIRGRPPRLPRPRPRPNEQPRP | -0.0722
RRIRWRPPRLPRPRPRPSDEPRP | -0.117
RRIRWRPPRLPRPRPRPRHYPRP | 0.00846
RRIRRRPPRLPRPRPRPNHKPRP | -0.226
RRIRYRPPRLPRPRPRPHDSPRP | -0.08
RRIRCRPPRLPRPRPRPGVVPRP | 0.147
RRIRDRPPRLPRPRPRPQYWPRP | -0.695
RRIRMRPPRLPRPRPRPCGVPRP | 0.714
RRIRTRPPRLPRPRPRPPEFPRP | -0.231
RRIRSRPPRLPRPRPRPMTNPRP | -0.309
RRIRARPPRLPRPRPRPNLHPRP | 0.0181
RRIRFRPPRLPRPRPRPQSQPRP | 0.0846
